From patent US20250235479A1 (INNOBATION BIO, published 2025)
One block for each binder: values may come before it.

How the values were obtained:
[1] = molecular target: T1, CD22 protein (ACRObiosystems Inc., cat #CD2-H52H8, USA) (UniProt P20273 20-687); assay: ELISA screening of hybridoma clones
T1 construct: Named as the immunogen
T1 sequence (looked up): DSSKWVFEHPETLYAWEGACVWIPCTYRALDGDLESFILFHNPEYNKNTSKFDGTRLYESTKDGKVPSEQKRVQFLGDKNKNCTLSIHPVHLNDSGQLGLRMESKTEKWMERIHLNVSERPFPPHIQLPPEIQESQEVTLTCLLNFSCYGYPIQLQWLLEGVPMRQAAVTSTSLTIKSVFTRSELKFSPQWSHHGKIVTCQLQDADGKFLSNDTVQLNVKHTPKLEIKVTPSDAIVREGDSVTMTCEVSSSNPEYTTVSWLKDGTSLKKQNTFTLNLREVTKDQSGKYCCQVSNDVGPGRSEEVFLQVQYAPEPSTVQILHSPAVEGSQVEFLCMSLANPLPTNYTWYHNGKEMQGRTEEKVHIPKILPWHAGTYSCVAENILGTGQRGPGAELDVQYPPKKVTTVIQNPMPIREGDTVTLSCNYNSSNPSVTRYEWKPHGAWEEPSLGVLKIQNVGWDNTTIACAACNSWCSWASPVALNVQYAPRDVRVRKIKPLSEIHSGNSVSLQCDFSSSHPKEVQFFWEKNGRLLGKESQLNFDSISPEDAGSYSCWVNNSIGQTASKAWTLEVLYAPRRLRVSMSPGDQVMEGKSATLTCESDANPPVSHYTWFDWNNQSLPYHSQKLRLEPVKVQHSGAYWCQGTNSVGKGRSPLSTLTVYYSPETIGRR
From the text: A limiting dilution method was used to select a hybridoma that produces an antibody binding to CD22 from among the proliferated hybridomas. First, the number of cells was reduced to 1 cell or less per […], and then it was confirmed by ELISA whether an antibody obtained from a clone proliferated from one cell bound to CD22, and a clone binding to CD22 was selected. The above process was repeated three times to select hybridomas that produced the antibody binding to CD22. The antibody binding to CD22 was obtained in this manner.

[2] = molecular target: T2, CD22 expressed on cells (U2932, NALM6, K562/CD22+ cells) (UniProt P20273 20-847, limits assumed); assay: flow cytometry on U2932 cells expressing CD22
T2 construct: whole, on cells; the cell lines are human lines; also called cells expressing CD22
T2 sequence (looked up): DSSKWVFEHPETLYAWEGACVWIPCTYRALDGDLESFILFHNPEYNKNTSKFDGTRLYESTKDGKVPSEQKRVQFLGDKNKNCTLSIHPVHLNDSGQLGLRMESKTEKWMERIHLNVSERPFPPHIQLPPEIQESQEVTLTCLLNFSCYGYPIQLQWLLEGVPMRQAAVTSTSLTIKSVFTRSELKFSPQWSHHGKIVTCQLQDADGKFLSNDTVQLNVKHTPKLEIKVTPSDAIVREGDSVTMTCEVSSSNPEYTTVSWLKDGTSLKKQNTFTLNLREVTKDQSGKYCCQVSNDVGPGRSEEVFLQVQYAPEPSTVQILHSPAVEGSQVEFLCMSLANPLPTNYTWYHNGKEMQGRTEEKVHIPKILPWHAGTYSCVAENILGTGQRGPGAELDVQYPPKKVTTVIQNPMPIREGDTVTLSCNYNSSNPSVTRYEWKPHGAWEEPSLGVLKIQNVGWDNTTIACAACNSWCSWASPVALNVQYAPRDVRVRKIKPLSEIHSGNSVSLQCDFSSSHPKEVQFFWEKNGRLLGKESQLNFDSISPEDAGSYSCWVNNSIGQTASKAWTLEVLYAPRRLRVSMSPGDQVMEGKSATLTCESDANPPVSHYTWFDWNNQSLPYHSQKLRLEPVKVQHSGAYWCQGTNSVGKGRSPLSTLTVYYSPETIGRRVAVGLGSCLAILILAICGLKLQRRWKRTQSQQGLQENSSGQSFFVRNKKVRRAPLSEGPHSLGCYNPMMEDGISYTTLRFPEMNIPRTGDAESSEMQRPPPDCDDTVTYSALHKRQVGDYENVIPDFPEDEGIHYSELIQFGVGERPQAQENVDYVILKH

binding result [1]: binds
binding result [2]: binds
B1: 2G1 antibody (mouse anti-CD22 antibody) (antibody, V domains shown)
VH: EVQLQESGPGLVAPSQSLSITCTVSGFSLTSYDISWIRQPPGKGLEWLGVIWTGGGTNYNSAFMSRLSISKDNSKSQVFLKMNSLQTDDTAIYYCVPHYYGYAMDYWGQGTSVTVSS
VL: DIVLTQSPSSLSASLGGKVTITCKASQDINKYIAWYQHKPGKGPRLLIHYTSTLQPGIPSRFSGSGSGRDYSFSISNLEPEDIATYYCLQYDNLLTFGAGTKLELK
notes: Obtained from a mouse hybridoma; also called mouse 2G1 antibody

binding result [2]: binds
B2: humanized anti-CD22 antibody 2G1(V4) (antibody, V domains shown)
VH: EVQLQESGPGLVKPSQTLSLTCTVSGFSLTSYDISWIRQPPGKGLEWLGVIWTGGGTNYNSALKSRVTISKDNSKSQVSLKLSSVTAADTAVYYCVPHYYGYAMDYWGQGTTVTVSS
VL: EIVLTQSPATLSLSPGERATLSCRASQDINKYIAWYQQKPGQAPRLLIHYTSTRQTGIPARFSGSGSGRDYTLTISSLEPEDFAVYYCLQYDNLLTFGGGTKLEIK
notes: CDR-grafted humanized form of 2G1

binding result [2]: binds
B3: humanized anti-CD22 antibody 2G1(V12) (antibody, V domains shown)
VH: EVQLKESGPVLVKPTETLTLTCTVSGFSLTSYDISWIRQPPGKALEWLGVIWTGGGTNYNSALKSRLTISKDNSKSQVVLTMTNMDPVDTATYYCVPHYYGYAMDYWGQGTTVTVSS
VL: B2 VL
notes: as for B2
